# Results reported in paper PMC12285222.
# Biological target: trypsin-processed Vip3Cb1 toxin (Paenibacillus sp. strain DSC004343)
# Experiment: cryo-EM structure
substance,measurement,value
trypsin-processed Vip3Cb1 toxin (complex),stoichiometry N,4
